Data set [1] has as its target T1, N15 Cro (bacteriophage N15, UniProt Q37964 1-71).
T1 sequence: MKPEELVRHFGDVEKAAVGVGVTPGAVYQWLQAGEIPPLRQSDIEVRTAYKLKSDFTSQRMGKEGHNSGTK
Kind of data set: X-ray crystallography.

The next data set has as its target T2, N15 Cro-His6 (bacteriophage N15, UniProt Q37964 1-71).
T2 sequence: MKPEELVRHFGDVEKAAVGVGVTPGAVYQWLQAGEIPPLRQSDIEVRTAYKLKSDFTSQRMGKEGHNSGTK
Kind of data set: EMSA. (A gel shift assay detects complexes by their altered migration in electrophoresis.)

For data set [2], the target named is T1, N15 Cro. The experiment in a line: EMSA.

Experimental findings from PMC6649833 are described below.

B1: N15 symmetric consensus OR 16 bp (dsDNA)
DNA 1: TTTATAGCTAGCTATAA
DNA 2: TTTATAGCTAGCTATAA
For the molecule B1, in the data set with N15 Cro [1], the binding result is recorded as “binds”.

B2: N15 OR3 28 bp (dsDNA)
DNA 1: GCAAAATTATAGCCAGCTATAAAGAGCG
DNA 2: CGCTCTTTATAGCTGGCTATAATTTTGC
Turning to B2, the Kd turned out to be 91 ± 11 nM with N15 Cro-His6 and 90 ± 7 nM with N15 Cro [2].

In general, Kd refers to the equilibrium constant for the complex coming apart. The low end stands for tighter binding, the high end for weaker binding.
